B3: chloroplast ribosomal protein bL21c (natural protein, UniProt P24613 56-256, looked up)
chain: AKRRRFQEIPEELKAEFEEFQRPPNQKPQLSDVLPDDFQAPEPGTPEYNDIINQFLPKKGPPPPREEIFAVVVIGSRQYIVIPGRWIYTQRLKGATVNDKIVLNKVLLVGTKASTYIGTPIVTNAAVHAVVEEQLLDDKVIVFKYKKKKNYRRNIGHRQPITRIKITGITGYEDYPASTLEAEVEAKEEAEAEAEAEAVPV
B6: chloroplast ribosomal protein uS5c (natural protein, UniProt Q9ST69 56-308, looked up)
chain: CIKKDDIDITFFEQDNPDEEITFDPPEKPEGYIPPRAVDEPPFESEEEIALAYEELYGAAYSGESLLGNDVYAMDSKIKKATGFGSKSKKEKIRDGFEENVVQVRRVTKVVKGGKHMRFRAIVVVGDKKGQVGVGVGKAKEVVSAVQKAAVDARRNIITVPMTKYLTFPHRNEADYGAARVMLRPAAPGTGVIAGGAVRTVLEMAGVENALGKQLGSNNALNNARATIVAVQTMRQFSDVARDRGIPMEELWK

What all share (experiment): cryo-EM structure
In experiment [1] the target is T1, chloroplast ribosomal protein bS1c (spinach (Spinacia oleracea) (endogenous …, UniProt P29344 42-411)).
T1 sequence (looked up): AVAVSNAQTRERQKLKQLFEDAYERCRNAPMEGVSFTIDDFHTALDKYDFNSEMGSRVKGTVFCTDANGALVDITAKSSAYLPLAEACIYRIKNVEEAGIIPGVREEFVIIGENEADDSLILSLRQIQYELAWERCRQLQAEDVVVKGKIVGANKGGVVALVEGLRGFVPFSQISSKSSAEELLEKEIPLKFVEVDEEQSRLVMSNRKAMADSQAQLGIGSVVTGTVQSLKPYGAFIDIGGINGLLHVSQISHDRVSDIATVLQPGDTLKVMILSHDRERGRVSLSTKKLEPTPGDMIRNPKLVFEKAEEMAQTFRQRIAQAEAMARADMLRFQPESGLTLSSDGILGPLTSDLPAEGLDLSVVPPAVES

For experiment [2], the target named is B6.
Experiment [3] addresses B3.
The target of experiment [4] is T2, chloroplast ribosomal protein bL20c (spinach (Spinacia oleracea) (endogenous …, UniProt P28803 1-128)).
T2 sequence (looked up): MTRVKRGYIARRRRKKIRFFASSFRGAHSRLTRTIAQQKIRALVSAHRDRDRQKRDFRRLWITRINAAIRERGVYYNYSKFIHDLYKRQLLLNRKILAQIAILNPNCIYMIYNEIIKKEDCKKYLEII

The target of experiment [5] is T3, chloroplast ribosomal protein uL13c (spinach (Spinacia oleracea) (endogenous …, UniProt P12629 48-250)).
T3 sequence (looked up): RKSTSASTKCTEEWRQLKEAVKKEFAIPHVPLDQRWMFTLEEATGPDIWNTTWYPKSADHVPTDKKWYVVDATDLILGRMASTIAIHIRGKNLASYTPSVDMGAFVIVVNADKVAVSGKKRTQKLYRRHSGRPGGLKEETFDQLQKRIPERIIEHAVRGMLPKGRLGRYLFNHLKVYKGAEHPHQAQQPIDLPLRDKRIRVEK

The target of experiment [6] is T4, chloroplast ribosomal protein uL23c (spinach (Spinacia oleracea) (endogenous …, UniProt Q9LWB5 77-198)).
T4 sequence (looked up): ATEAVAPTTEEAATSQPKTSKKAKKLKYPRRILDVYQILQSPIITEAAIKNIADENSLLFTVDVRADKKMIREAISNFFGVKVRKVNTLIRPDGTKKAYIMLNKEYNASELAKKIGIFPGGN

Experiment [7] addresses T5, chloroplast ribosomal protein uS13c (spinach (Spinacia oleracea) (endogenous …, UniProt P82163 48-172)).
T5 sequence (looked up): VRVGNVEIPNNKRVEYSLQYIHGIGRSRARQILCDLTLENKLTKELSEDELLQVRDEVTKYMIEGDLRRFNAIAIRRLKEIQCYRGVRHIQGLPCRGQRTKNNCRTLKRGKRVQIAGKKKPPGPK

B1: chloroplast ribosomal protein uS2c (natural protein, UniProt P08242 1-236, looked up)
chain: MTRRYWNINLEEMMEAGVHFGHGTRKWNPRMSPYISAKCKGIHIINLTRTARFLSEACDLVFDASSRGKQFLIVGTKNKAADSVARAAIRARCHYVNKKWLGGMLTNWSTTETRLHKFRDLRMEQTAGRLARLPKRDAAVVKRQLSHLQTYLGGIKYMTGLPDIVIIVDQQEEYTALRECITLGIPTICLIDTNCNPDLADISIPANDDAIASIRLILTKLVFAICEGRSSYIRNP
Turning to B1, the binding result in experiment [1] and in experiment [2] was “binds” throughout.

B2: plastid-specific ribosomal protein cL38 (natural protein, UniProt P82411 48-116, looked up)
chain: SSRPQKKGTAHHMKTRPKKTARWDIKRGPAVYPPLPPLPAEWTIVSSAVDEADSSSSTTSSSAEIAQSA
As to B2, the binding result in experiment [3] and in experiment [4] was “binds” in each case.
B3: in experiment [5], the binding result is “binds”.

B4: chloroplast ribosomal protein uL29c (natural protein, UniProt P82248 59-168, looked up)
chain: VKKEDELKELRTKTNEQLNEEILQLKGELFMLRLQRSARENFKPSDFGRMRKRVARMLTVKREREIEQGVGKRLSRKLDKAWKRSIVVRPPPSLKKLQEKATAEAEAEKA
B4: the binding result in experiment [6] is “binds”.

B5: chloroplast ribosomal protein uS3c (natural protein, UniProt P09595 1-218, looked up)
chain: MGQKINPLGFRLGTTQSHYSLWFSQPKNYAEGLQEDQKIRDCIKNYVQKNTKTSSGVEGIARIEIQKRIDLIQVIIHMGFPKLLIENRPQGVEDLKINVQKELNCVNRKLNIAITRIAKPYGDPNILAEFIAGQLKSRVSFRKAMKKAIELTEQADTKGIQIQIAGRIDGKEIARIEWIREGRVPLQTIRAKIDYCAYTVRTIYGVLGIKIWIFMGEE
For B5, in experiment [2], the binding result is listed as “binds”.
Take B6: the binding result in experiment [1] is “binds”.

B7: chloroplast ribosomal protein uL22c (natural protein, UniProt P09594 1-199, looked up)
chain: MGFFKKKEKKAEFDVFRLYGLHHPEPGKCDEITTRGYSISMSVDKARRVIDQIRGRSYAETLMILELMPYRACYPIFKLIYSAAANASHNKQFNKANLIISKAEVNKGITLKKVKPRARGRSYMIKRPTCHITIVLRDITHFDSYDKFLESLTPKKLIALLGLMSTGRRRELLCGRFRENHKIKSFLYKIALFKRYEVM
As for B7, in experiment [5], the binding result was “binds”.
In the case of GRGDRKTAKGKRFNHSFGNARPKNKNKGRGPPKAPIFPKGDPSQKED (natural protein, UniProt P47910 55-101, looked up) [plastid-specific ribosomal protein bTHXc], the binding result in experiment [7] is reported as “binds”.

The values above are taken from PMC5694952 (The EMBO Journal, 2016).
